Drawing on US20080159996, this text covers activity (% CCR5 alleles modified) and activity (% CCR2 alleles modified) for three substances.

What all share (test): cell_activity
The test system of data set [1] is ZFN 8196z-FokI wt (ZFN215 and ZFN201 pair member) (synthetic).
The test system of data set [2] is ZFN 8196z-FokI E490K/I538K (ZFN224 pair member) (synthetic).
For data set [3], the system named is ZFN 8266-FokI Q486E/I499L (ZFN224 pair member) (synthetic).
For data set [4], the system named is ZFN 8266-FokI wt (ZFN201 pair member) (synthetic). The following applies: pair ZFN201 with 8196z, PM1 cells, plasmid electroporation.
Data set [5] relates to ZFN 8267-FokI wt (ZFN215 pair member) (synthetic). As to conditions: pair ZFN215 with 8196z, CD4+ T-cells, MOI 100, Cel-1 assay; 31.2% in PBMCs.
Setting [6] is: pair ZFN224, CD4 T cells, conditions giving 35.6% CCR5 modification, Surveyor nuclease.

“AAACTGCAAAAG (double strand) [CCR5 168 half-site]”: the activity (% CCR5 alleles modified) in data set [1] (pair ZFN201 with 8266, PM1 cells, plasmid electroporation) came out at 2.4; in data set [1] (pair ZFN215 with 8267, CD4+ T-cells, MOI 100, Cel-1 assay, 31.2% in PBMCs) it was 32.3; in data set [2] (pair ZFN224, CD4+ T-cells, MOI 100, Cel-1 assay, 48.4% in Example 4), 14.9.
As for CCR2 off-target site, the activity (% CCR2 alleles modified) in data set [3] (setting [6]) and in data set [2] (setting [6]) was 4.1 throughout.
As to “GATGAGGATGAC (double strand) [CCR5 r162 half-site]”, the activity (% CCR5 alleles modified) in data set [4] came to 2.4; in data set [3] (pair ZFN224 with 8196z, CD4+ T-cells, MOI 100, Cel-1, Examples 14 and 17 state 8266 in ZFN224 but Example 1 states 8267) it was 14.9; in data set [5] it was 32.3.
